# Results as given in patent publication US10487337B2, “Methods for monocot plant improvement” (Agresearch Limited, priority 2014, dated 2019).
# T1: BZR1 (Arabidopsis thaliana, UniProt Q8S307)
# T1 construct: expressed in transfected cells; host or cells: yeast strain MaV203
# T1 sequence (Q8S307 with tags, fused parts or gaps): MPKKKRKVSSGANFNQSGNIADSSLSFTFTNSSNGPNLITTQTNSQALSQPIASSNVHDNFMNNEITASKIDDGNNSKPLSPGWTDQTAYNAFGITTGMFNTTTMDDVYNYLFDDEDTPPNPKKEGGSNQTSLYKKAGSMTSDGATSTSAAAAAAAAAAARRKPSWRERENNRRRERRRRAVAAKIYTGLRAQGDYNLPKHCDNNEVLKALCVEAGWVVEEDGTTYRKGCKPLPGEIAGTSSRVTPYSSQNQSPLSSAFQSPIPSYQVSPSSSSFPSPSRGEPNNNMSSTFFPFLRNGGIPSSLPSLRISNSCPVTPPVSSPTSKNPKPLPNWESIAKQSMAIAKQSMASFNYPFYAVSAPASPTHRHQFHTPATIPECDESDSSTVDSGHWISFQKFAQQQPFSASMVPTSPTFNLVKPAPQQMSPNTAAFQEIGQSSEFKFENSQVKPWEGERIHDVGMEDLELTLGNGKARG
# Biological target: T1, BZR1
# Test: Yeast two hybrid (Y2H) interaction with BZR1
# Assay type: binding
# Source text: The constructs for Y2H and BiFC assays were generated as follows. Arabidopsis DNA sequences encoding the open reading frames for; At4g14713 (PPD1) and truncation and deletion derivatives of PPD1: PPD1; PPD1Δppd (N-terminal truncation of sequences encoding aa 1-61), PPD1Δtify, (internal deletion of sequences encoding aa 154-186), PPD1Δjas*(C-terminal truncation of sequences encoding aa 229-313) (FIG. 5), At4g28910 (NINJA), At1g15750 (TPL), At1g75080 (BZR1), a synthetic PUAS-35S promoter, and sequences encoding GAL4DBD and c-myc fusion proteins were synthesised and sequence verified by GeneArt. Most sequences were supplied as clones in pENTR221 ready for Gateway cloning into yeast and plant expression vectors. The exception, a promoter sequence for in planta transcription activation assays, incorporating 5′ Xho1 and 3′ Nco1 restriction enzyme sites, was supplied cloned in pMA-RQ. Plasmids for the transient LUC reporter assay: A synthetic promoter with 5×UAS GAL4 DNA binding sites upstream of a −105 bp CaMV35S promoter was cloned into the XhoI-NcoI sites within a dual luciferase construct pNWA62, which contains an intron-containing Firefly Luciferase gene (LUC) and 35Spro::Renilla Luciferase (REN) as an internal standard, to construct pAML7. […]
molecule,measurement,value
"TPL: TOPLESS transcriptional co-repressor of Arabidopsis, SEQ ID NO: 60 (protein, Consensus sequence) MSSLSRELVFLILQFLDEEKFKETVHKLEQESGFFFNMKYFEDEVHNGNWDEVEKYLSGFTKVDDNRYSMKIFFEIRKQKYLEALDKHDRPKAVDILVKDLKVFSTFNEELFKEITQLLTLENFRENEQLSKYGDTKSARAIMLVELKKLIEANPLFRDKLQFPTLRNSRLRTLINQSLNWQHQLCKNPRPNPDIKTLFVDHSCGPPNGARAPSPVNNPLLGGIPKAGGFPPLGAHGPFQPTASPVPTPLAGWMSSPSSVPHPAVSAGAIALGGPSIPAALKHPRTPPTNASLDYPSADSEHVSKRTRPMGISDEVNLGVNMLPMSFSGQAHGHSPAFKAPDDLPKTVARTLSQGSSPMSMDFHPIKQTLLLVGTNVGDIGLWEVGSRERLVQKTFKVWDLSKCSMPLQAALVKEPVVSVNRVIWSPDGSLFGVAYSRHIVQLYSYHGGEDMRQHLEIDAHVGGVNDISFSTPNKQLCVITCGDDKTIKVWDAATGVKRHTFEGHEAPVYSVCPHYKENIQFIFSTALDGKIKAWLYDNMGSRVDYDAPGRWCTTMAYSADGTRLFSCGTSKDGESFIVEWNESEGAVKRTYQGFHKRSLGVVQFDTTKNRYLAAGDDFSIKFWDMDAVQLLTAIDGDGGLQASPRIRFNKEGSLLAVSGNENVIKIMANSDGLRLLHTFENISSESSKPAINSIAAAAAAAATSAGHADRSANVVSIQGMNGDSRNMVDVKPVITEESNDKSKIWKLTEVSEPSQCRSLRLPENLRVAKISRLIFTNSGNAILALASNAIHLLWKWQRNERNATGKATASLPPQQWQPASGILMTNDVAETNPEEAVPCFALSKNDSYVMSASGGKISLFNMMTFKTMATFMPPPPAATFLAFHPQDNNIIAIGMDDSTIQIYNVRVDEVKSKLKGHSKRITGLAFSNVLNVLVSSGADAQLCVWNTDGWEKQRSKVLPLPQGRPNSAPSDTRVQFHQDQAHFLVVHETQLAIYETTKLECMKQWAVRESLAPITHATFSCDSQLVYASFMDATVCVFSSANLRLRCRVNPSAYLPASLSNSNVHPLVIAAHPQEPNMFAVGLSDGGVHIFEPLESEGKWGVAPPAENGSASGAPTAPSVGASASDQPQR",interaction with BZR1,direct interaction occurs
